For assay [1], the target named is T1, pep 2.
T1 construct: also called S100A4 peptide 2; #2 (10-mer: 11-20)
T1 chain: VMVSTFHKYS
In words: peptide ELISA, absorbance 450 nm (Pep-BG). On the technique in general: In an ELISA, binding on a coated surface is turned into a signal by an enzyme label.

The target of assay [2] is T2, pep 1.
T2 construct: also called S100A4 peptide 1; #1 (10-mer: 1-10)
T2 chain: MACPLEKALD
In words: peptide ELISA, absorbance 450 nm (Pep-BG).

For assay [3], the target named is T3, pep 5.
T3 construct: also called S100A4 peptide 5; #5 (11-mer: 43-53)
T3 chain: PSFLGKRTDEA
The experiment in a line: peptide ELISA, absorbance 450 nm (Pep-BG).

Assay [4] deals with T4, pep 3.
T4 construct: also called S100A4 peptide 3; #3 (11-mer: 21-31)
T4 chain: GKEGDKFKLNK
The experiment in a line: peptide ELISA, absorbance 450 nm (Pep-BG).

The target in assay [5] is T5, pep 4.
T5 construct: also called S100A4 peptide 4; #4 (11-mer: 32-42)
T5 chain: SELKELLTREL
In words: peptide ELISA, absorbance 450 nm (Pep-BG).

In assay [6] the target is T6, S100A4 peptide 9 (FEGFPDKQPRKK, 12-mer: 90-101) (human).
T6 construct: also called P9; C-terminal peptide
T6 peptide: FEGFPDKQPRKK
In words: peptide ELISA, absorbance 450 nm (Pep-BG).

The target in assay [7] is T7, pep 6.
T7 construct: also called S100A4 peptide 6; #6 (12-mer: 54-65)
T7 chain: AFQKLMSNLDSN
The experiment in a line: peptide ELISA, absorbance 450 nm (Pep-BG).

In assay [8] the target is T8, human S100A4 protein (human, UniProt P26447 2-101, limits assumed).
T8 construct: Recombinant protein on blots and endogenous protein in extracts of human cell lines; also called human S100A4 recombinant protein
T8 sequence (P26447 2-101 limits assumed, one chain of several): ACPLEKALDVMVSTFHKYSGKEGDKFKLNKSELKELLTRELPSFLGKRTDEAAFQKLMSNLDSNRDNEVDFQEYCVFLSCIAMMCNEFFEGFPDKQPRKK
The experiment in a line: Western blot of recombinant proteins and of cell extracts (FIG. 1). A general note: In western blotting, separated proteins are transferred to a membrane and probed.

The target in assay [9] is T9, recombinant S100A4 protein (species not stated for the experiment).
T9 construct: also called immobilized S100A4; oligomeric S100A4
T9 sequence (P07091 whole entry): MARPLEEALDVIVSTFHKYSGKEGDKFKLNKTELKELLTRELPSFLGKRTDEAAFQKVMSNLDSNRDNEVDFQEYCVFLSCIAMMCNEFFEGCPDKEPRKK
In words: SPR (BIAcore 2000), S100A4 amine-coupled to CM5 chip, mAb injected, 1:1 fit. The method, then: All SPR analyses were conducted on a BIAcore 2000 system (GE-Healthcare Life Sciences, Upsala, Sweden). The experiments were performed at 25° C. using HBST/Ca (10 mM HEPES, 150 mM NaCl, 0.005% Tween® and 50 μM CaCl2) as running buffer. The S100A4 protein was immobilized on a sensor chip CM5 (GE-Healthcare, BR-1000-12) using the amine coupling kit from GE Healthcare (BR-1000-50). The flow rate was set to 5 μl/min. The flow cells were activated individually by injecting 35 μl freshly mixed 0.4 M EDC ((N-(3-dimethylaminopropyl)-N′-ethylcarbodiimide hydrochloride) in 0.05 M NHS (N-hydroxysuccinimide) solution. Then 5 μg/ml S100A4 protein diluted in 10 mM acetic acid, pH 5.0 was injected for 1 to 10 minutes until the desired level of immobilization was reached (about 400 to 800 RU). The remaining active groups were deactivated by injecting 35 μl 1 M ethanolamine (pH 8.5). All experiment included a reference surface which was prepared by activating and deactivating of the surface of flow cell 1 (FC1). The blank surface reference was used to correct for bulk effects and nonspecific binding. The channel referencing was done automatically by the BIACORE 2000 control software.
The injections were performed using the KINJECT mode (injection10 min, dissociation 20-30 min). The flow rate during injection and regeneration was kept at 50 μl/min. […]
A general note: Surface plasmon resonance follows binding to a sensor surface in real time, without labels.

Assay [10] has as its target T10, h S100B (human, UniProt P04271).
T10 construct: purified protein on a PVDF membrane; one of the 'other S100 family members'; also called human S100B
T10 sequence (looked up): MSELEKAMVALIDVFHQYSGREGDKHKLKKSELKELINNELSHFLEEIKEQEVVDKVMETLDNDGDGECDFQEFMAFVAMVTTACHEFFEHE
The experiment in a line: Western blot of purified S100 proteins on PVDF membrane.

Assay [11] concerns the target T11, h S100A9 (human, UniProt P06702).
T11 construct: purified protein on a PVDF membrane; one of the 'other S100 family members'; also called human S100A9
T11 sequence (looked up): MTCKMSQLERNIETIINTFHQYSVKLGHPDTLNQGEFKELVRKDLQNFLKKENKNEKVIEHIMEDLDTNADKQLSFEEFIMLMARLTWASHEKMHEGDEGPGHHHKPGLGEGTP
The assay is described as above.

Assay [12] concerns the target T12, h S100A2 (human, UniProt P29034).
T12 construct: purified protein on a PVDF membrane; one of the 'other S100 family members'; its amido black loading band is very faint in the scan; also called human S100A2
Described as above.

Assay [13] addresses T13, h S100A5 (human, UniProt P33763).
T13 construct: purified protein on a PVDF membrane; one of the 'other S100 family members'; also called human S100A5
T13 sequence (looked up): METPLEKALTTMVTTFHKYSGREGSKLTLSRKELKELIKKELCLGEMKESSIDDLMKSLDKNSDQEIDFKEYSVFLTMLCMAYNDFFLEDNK
The assay is described as above.

Assay [14] addresses T14, h S100A12 (human, UniProt P80511).
T14 construct: purified protein on a PVDF membrane; one of the 'other S100 family members'; no amido black loading band is visible for this lane in the scan; also called human S100A12
T14 sequence (looked up): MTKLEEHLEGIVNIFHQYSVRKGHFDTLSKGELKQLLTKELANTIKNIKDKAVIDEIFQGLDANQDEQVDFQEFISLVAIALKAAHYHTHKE
The assay is described as above.

The target in assay [15] is T15, h S100A1 (human, UniProt P23297).
T15 construct: purified protein on a PVDF membrane; one of the 'other S100 family members'; also called human S100A1
T15 sequence (looked up): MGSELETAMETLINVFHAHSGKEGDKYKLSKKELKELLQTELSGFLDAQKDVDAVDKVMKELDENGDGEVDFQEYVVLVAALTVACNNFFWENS
The assay is described as above.

Assay [16] deals with T16, S100A4 peptide 7 (RDNEVDFQEYCV, 12-mer: 66-77) (human).
T16 construct: also called P7
T16 peptide: RDNEVDFQEYCV
In words: peptide ELISA (FIG. 4A).

The target in assay [17] is T17, S100A4 peptide 8 (FLSCIAMMCNEF, 12-mer: 78-89) (human).
T17 construct: also called P8
T17 peptide: FLSCIAMMCNEF
In words: peptide ELISA (FIG. 4A).

Assay [18] addresses T18, mouse S100A4 protein (mouse, UniProt P07091 2-101, limits assumed).
T18 construct: also called murine S100A4; recombinant mouse S100A4 protein
The experiment in a line: ELISA screen of hybridoma clones on mouse S100A4.

T18 sequence (P07091 2-101 limits assumed, one chain of several): as the sequence (P26447 2-101 limits assumed, one chain of several) above, with C2R, K6E, M11I, S31T, L57V, F92C, Q96E counted along it
T12 sequence (P29034 whole entry, one chain of several): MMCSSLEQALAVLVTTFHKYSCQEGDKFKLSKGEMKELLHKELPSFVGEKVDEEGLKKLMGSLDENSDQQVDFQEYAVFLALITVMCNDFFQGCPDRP

B1: anti-S100A4 mouse monoclonal antibody, clone 6B12 (antibody, V domains shown)
VH: DVQLQESGPGLVKPSQSLSLTCSVTGDSFTNDYYWNWIRQFPGSKLEWMGHIGYGGNINYNPSLKNRISITRDTSKNQFFLRLTSVTTEDTATYYCTRESFYDGYPFDYWGQGTLVTVSA
VL: DIQMTQTTSSLSASLGDRVTISCRASQDIRNYLNWYQQRPGGTLKLLIYYTSRLHSGVPSRFSGSGSGTDYSLTISNLEQEDIATYFCQQGNSLPRTFGGGTKLEIK
notes: constant regions are not; also called 6B12 mAb; mAb 6B12
What is called Kd is the equilibrium constant for the complex coming apart. The kon is a measure of how fast the partners come together. For the molecule B1, the binding result in assay [1], in assay [2], in assay [3], in assay [4], in assay [5] and in assay [6] was “no binding” in each case. The binding result is recorded as “no binding” in assay [7]; “binds” in assay [8]; “no binding” in assay [10]; “no binding” in assay [11]; “no binding” in assay [12]; “no binding” in [13]. Moreover, the binding result in assay [14] is reported as “no binding”; in assay [15], “no binding”; in assay [16] it was “binds”; in [17] it was “binds”; in assay [18], “binds”. Further, the Kd in assay [9] stood at 0.114 nM. The kon in assay [9] was found to be 287000 M⁻¹ s⁻¹.

The values are drawn from US20160159888A1 (CANCER RESEARCH TECHNOLOGY, published 2016).
